Values of other authors in publication PMC9880166.
pKd: −log10 of the molar value. Read-outs that look alike come from different tables or passages of the source.

Columns and labels:
[1] = target: prolactin receptor (Homo sapiens) (UniProt P16471); assay: SPR
[2] = target: prolactin receptor (Homo sapiens) (UniProt P16471)

Sequence of UniProt P16471 (P16471 25-234): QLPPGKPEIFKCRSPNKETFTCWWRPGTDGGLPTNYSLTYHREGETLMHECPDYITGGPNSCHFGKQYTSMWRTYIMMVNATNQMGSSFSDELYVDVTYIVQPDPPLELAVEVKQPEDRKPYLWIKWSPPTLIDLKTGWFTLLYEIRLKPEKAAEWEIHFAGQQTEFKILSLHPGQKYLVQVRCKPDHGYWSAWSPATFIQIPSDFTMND
Sequence of prolactin (P01236 29-227): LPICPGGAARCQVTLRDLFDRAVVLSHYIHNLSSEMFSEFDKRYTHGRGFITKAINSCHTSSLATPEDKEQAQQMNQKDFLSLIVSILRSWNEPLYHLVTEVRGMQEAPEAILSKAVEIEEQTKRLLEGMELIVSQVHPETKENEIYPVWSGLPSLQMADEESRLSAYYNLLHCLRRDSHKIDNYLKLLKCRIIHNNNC

- pKd [1]: 7.64
- pKd [2]: 7.52
Substance: prolactin (from UniProt P01236)
